# Laboratory results taken from PMC12416549 (2024).
# T1: TNFR1 (Homo sapiens, UniProt P19438)
# T1 chain: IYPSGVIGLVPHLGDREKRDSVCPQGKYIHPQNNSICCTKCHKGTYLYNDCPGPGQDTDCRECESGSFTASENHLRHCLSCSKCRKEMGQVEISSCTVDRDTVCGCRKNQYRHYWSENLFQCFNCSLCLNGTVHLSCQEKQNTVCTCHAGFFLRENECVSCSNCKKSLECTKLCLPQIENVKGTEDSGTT
# Target: T1, TNFR1
# Experiment: yeast display SC50
row,apparent Kd (screen),Binder
1,0.79 nM,K23L (designed binder) SMEEEVEKAAKEYEKKKKEAIELHLEKLKAKDKEAAERFLKELEEAAKEYAKDEAKTMSEEEAKRRAKKYKEKVLLSELSEEEQKEIKEAEEKLVRTILKYVEEAAK
2,4.39 nM,Y50P (designed binder) SMEEEVEKAAKEYEKKKKEAIEKHLEKLKAKDKEAAERFLKELEEAAKEPAKDEAKTMSEEEAKRRAKKYKEKVLLSELSEEEQKEIKEAEEKLVRTILKYVEEAAK
3,1.69 nM,H24Y (designed binder) SMEEEVEKAAKEYEKKKKEAIEKYLEKLKAKDKEAAERFLKELEEAAKEYAKDEAKTMSEEEAKRRAKKYKEKVLLSELSEEEQKEIKEAEEKLVRTILKYVEEAAK
4,0.446 nM,Y70K (designed binder) SMEEEVEKAAKEYEKKKKEAIEKHLEKLKAKDKEAAERFLKELEEAAKEYAKDEAKTMSEEEAKRRAKKKKEKVLLSELSEEEQKEIKEAEEKLVRTILKYVEEAAK
5,0.539 nM,E22A (designed binder) SMEEEVEKAAKEYEKKKKEAIAKHLEKLKAKDKEAAERFLKELEEAAKEYAKDEAKTMSEEEAKRRAKKYKEKVLLSELSEEEQKEIKEAEEKLVRTILKYVEEAAK
6,0.79 nM,E62Q (designed binder) SMEEEVEKAAKEYEKKKKEAIEKHLEKLKAKDKEAAERFLKELEEAAKEYAKDEAKTMSEEQAKRRAKKYKEKVLLSELSEEEQKEIKEAEEKLVRTILKYVEEAAK
7,0.49 nM,S77A (designed binder) SMEEEVEKAAKEYEKKKKEAIEKHLEKLKAKDKEAAERFLKELEEAAKEYAKDEAKTMSEEEAKRRAKKYKEKVLLAELSEEEQKEIKEAEEKLVRTILKYVEEAAK
8,13.8 nM,D32Y (designed binder) SMEEEVEKAAKEYEKKKKEAIEKHLEKLKAKYKEAAERFLKELEEAAKEYAKDEAKTMSEEEAKRRAKKYKEKVLLSELSEEEQKEIKEAEEKLVRTILKYVEEAAK
9,2.48 nM,K41P (designed binder) SMEEEVEKAAKEYEKKKKEAIEKHLEKLKAKDKEAAERFLPELEEAAKEYAKDEAKTMSEEEAKRRAKKYKEKVLLSELSEEEQKEIKEAEEKLVRTILKYVEEAAK
10,0.956 nM,E62W (designed binder) SMEEEVEKAAKEYEKKKKEAIEKHLEKLKAKDKEAAERFLKELEEAAKEYAKDEAKTMSEEWAKRRAKKYKEKVLLSELSEEEQKEIKEAEEKLVRTILKYVEEAAK
11,1.4 nM,E4H (designed binder) SMEHEVEKAAKEYEKKKKEAIEKHLEKLKAKDKEAAERFLKELEEAAKEYAKDEAKTMSEEEAKRRAKKYKEKVLLSELSEEEQKEIKEAEEKLVRTILKYVEEAAK
12,5.84 nM,I87F (designed binder) SMEEEVEKAAKEYEKKKKEAIEKHLEKLKAKDKEAAERFLKELEEAAKEYAKDEAKTMSEEEAKRRAKKYKEKVLLSELSEEEQKEFKEAEEKLVRTILKYVEEAAK
13,0.446 nM,K17F (designed binder) SMEEEVEKAAKEYEKKFKEAIEKHLEKLKAKDKEAAERFLKELEEAAKEYAKDEAKTMSEEEAKRRAKKYKEKVLLSELSEEEQKEIKEAEEKLVRTILKYVEEAAK
14,0.446 nM,L40A (designed binder) SMEEEVEKAAKEYEKKKKEAIEKHLEKLKAKDKEAAERFAKELEEAAKEYAKDEAKTMSEEEAKRRAKKYKEKVLLSELSEEEQKEIKEAEEKLVRTILKYVEEAAK
15,2.73 nM,E62C (designed binder) SMEEEVEKAAKEYEKKKKEAIEKHLEKLKAKDKEAAERFLKELEEAAKEYAKDEAKTMSEECAKRRAKKYKEKVLLSELSEEEQKEIKEAEEKLVRTILKYVEEAAK
16,0.446 nM,A10T (designed binder) SMEEEVEKATKEYEKKKKEAIEKHLEKLKAKDKEAAERFLKELEEAAKEYAKDEAKTMSEEEAKRRAKKYKEKVLLSELSEEEQKEIKEAEEKLVRTILKYVEEAAK
17,7.07 nM,E3C (designed binder) SMCEEVEKAAKEYEKKKKEAIEKHLEKLKAKDKEAAERFLKELEEAAKEYAKDEAKTMSEEEAKRRAKKYKEKVLLSELSEEEQKEIKEAEEKLVRTILKYVEEAAK
18,1.16 nM,I21L (designed binder) SMEEEVEKAAKEYEKKKKEALEKHLEKLKAKDKEAAERFLKELEEAAKEYAKDEAKTMSEEEAKRRAKKYKEKVLLSELSEEEQKEIKEAEEKLVRTILKYVEEAAK

row,apparent Kd (screen),Binder
1,1.86 nM,L28I (designed binder) SMEEEVEKAAKEYEKKKKEAIEKHLEKIKAKDKEAAERFLKELEEAAKEYAKDEAKTMSEEEAKRRAKKYKEKVLLSELSEEEQKEIKEAEEKLVRTILKYVEEAAK
2,0.446 nM,A36V (designed binder) SMEEEVEKAAKEYEKKKKEAIEKHLEKLKAKDKEAVERFLKELEEAAKEYAKDEAKTMSEEEAKRRAKKYKEKVLLSELSEEEQKEIKEAEEKLVRTILKYVEEAAK
3,0.718 nM,Y70E (designed binder) SMEEEVEKAAKEYEKKKKEAIEKHLEKLKAKDKEAAERFLKELEEAAKEYAKDEAKTMSEEEAKRRAKKEKEKVLLSELSEEEQKEIKEAEEKLVRTILKYVEEAAK
4,0.446 nM,E81V (designed binder) SMEEEVEKAAKEYEKKKKEAIEKHLEKLKAKDKEAAERFLKELEEAAKEYAKDEAKTMSEEEAKRRAKKYKEKVLLSELSVEEQKEIKEAEEKLVRTILKYVEEAAK
5,0.79 nM,A106S (designed binder) SMEEEVEKAAKEYEKKKKEAIEKHLEKLKAKDKEAAERFLKELEEAAKEYAKDEAKTMSEEEAKRRAKKYKEKVLLSELSEEEQKEIKEAEEKLVRTILKYVEEASK
6,6.43 nM,L43D (designed binder) SMEEEVEKAAKEYEKKKKEAIEKHLEKLKAKDKEAAERFLKEDEEAAKEYAKDEAKTMSEEEAKRRAKKYKEKVLLSELSEEEQKEIKEAEEKLVRTILKYVEEAAK
7,0.49 nM,I21W (designed binder) SMEEEVEKAAKEYEKKKKEAWEKHLEKLKAKDKEAAERFLKELEEAAKEYAKDEAKTMSEEEAKRRAKKYKEKVLLSELSEEEQKEIKEAEEKLVRTILKYVEEAAK
8,10.4 nM,E42A (designed binder) SMEEEVEKAAKEYEKKKKEAIEKHLEKLKAKDKEAAERFLKALEEAAKEYAKDEAKTMSEEEAKRRAKKYKEKVLLSELSEEEQKEIKEAEEKLVRTILKYVEEAAK
9,0.718 nM,K8N (designed binder) SMEEEVENAAKEYEKKKKEAIEKHLEKLKAKDKEAAERFLKELEEAAKEYAKDEAKTMSEEEAKRRAKKYKEKVLLSELSEEEQKEIKEAEEKLVRTILKYVEEAAK
10,10.4 nM,A55Y (designed binder) SMEEEVEKAAKEYEKKKKEAIEKHLEKLKAKDKEAAERFLKELEEAAKEYAKDEYKTMSEEEAKRRAKKYKEKVLLSELSEEEQKEIKEAEEKLVRTILKYVEEAAK
11,12.5 nM,Q84G (designed binder) SMEEEVEKAAKEYEKKKKEAIEKHLEKLKAKDKEAAERFLKELEEAAKEYAKDEAKTMSEEEAKRRAKKYKEKVLLSELSEEEGKEIKEAEEKLVRTILKYVEEAAK
12,1.4 nM,E86Y (designed binder) SMEEEVEKAAKEYEKKKKEAIEKHLEKLKAKDKEAAERFLKELEEAAKEYAKDEAKTMSEEEAKRRAKKYKEKVLLSELSEEEQKYIKEAEEKLVRTILKYVEEAAK
13,26.9 nM,A90P (designed binder) SMEEEVEKAAKEYEKKKKEAIEKHLEKLKAKDKEAAERFLKELEEAAKEYAKDEAKTMSEEEAKRRAKKYKEKVLLSELSEEEQKEIKEPEEKLVRTILKYVEEAAK
14,0.49 nM,E78H (designed binder) SMEEEVEKAAKEYEKKKKEAIEKHLEKLKAKDKEAAERFLKELEEAAKEYAKDEAKTMSEEEAKRRAKKYKEKVLLSHLSEEEQKEIKEAEEKLVRTILKYVEEAAK
15,1.54 nM,S59T (designed binder) SMEEEVEKAAKEYEKKKKEAIEKHLEKLKAKDKEAAERFLKELEEAAKEYAKDEAKTMTEEEAKRRAKKYKEKVLLSELSEEEQKEIKEAEEKLVRTILKYVEEAAK
16,0.869 nM,K41A (designed binder) SMEEEVEKAAKEYEKKKKEAIEKHLEKLKAKDKEAAERFLAELEEAAKEYAKDEAKTMSEEEAKRRAKKYKEKVLLSELSEEEQKEIKEAEEKLVRTILKYVEEAAK
17,0.79 nM,K31W (designed binder) SMEEEVEKAAKEYEKKKKEAIEKHLEKLKAWDKEAAERFLKELEEAAKEYAKDEAKTMSEEEAKRRAKKYKEKVLLSELSEEEQKEIKEAEEKLVRTILKYVEEAAK
